The IC50 is the concentration that gives 50% inhibition.

This passage reports IC50, pseudovirus neutralization and IC50 results from patent US20200024330A1.

Holding throughout (test): cell-based or functional assay
In assay [1] the target is aMLV envelope (negative control pseudovirus).
Assay [2] deals with HIV-1 Env of isolate MGRM-Chronic-B-011 (HIV-1).
Assay [3] deals with HIV-1 Env of isolate MGRM-G-013 (HIV-1).
The target of assay [4] is HIV-1 Env of isolate MGRM-Chronic-B-018 (HIV-1).
In assay [5] the target is HIV-1 Env of isolate MGRM-G-019 (HIV-1).
For assay [6], the target named is HIV-1 Env of isolate MGRM-Chronic-B-024 (HIV-1).
For assay [7], the target named is HIV-1 Env of isolate MGRM-G-006 (HIV-1).
The target in assay [8] is HIV-1 Env of isolate MGRM-Chronic-B-020 (HIV-1).
Assay [9] has as its target HIV-1 Env of isolate MGRM-G-017 (HIV-1).
Assay [10] concerns the target HIV-1 Env of isolate MGRM-G-016 (HIV-1).
Assay [11] concerns the target HIV-1 Env of isolate MGRM-G-027 (HIV-1).
Assay [12] addresses HIV-1 Env of isolate MGRM-G-014 (HIV-1).
In assay [13] the target is HIV-1 Env of isolate MGRM-Chronic-B-023 (HIV-1).
In assay [14] the target is HIV-1 Env of isolate MGRM-Chronic-B-017 (HIV-1).
Assay [15] deals with HIV-1 Env of isolate MGRM-C-013 (HIV-1).
The target in assay [16] is HIV-1 Env of isolate MGRM-D-003 (HIV-1).
For assay [17], the target named is HIV-1 Env of isolate JRFL (HIV-1).
For assay [18], the target named is HIV-1 Env of isolate MGRM-G-001 (HIV-1).
In assay [19] the target is HIV-1 Env of isolate MGRM-Chronic-B-010 (HIV-1).
Assay [20] addresses HIV-1 Env of isolate MGRM-G-015 (HIV-1).
The target in assay [21] is HIV-1 Env of isolate MGRM-G-011 (HIV-1).
Assay [22] has as its target HIV-1 Env of isolate MGRM-G-009 (HIV-1).
In assay [23] the target is HIV-1 Env of isolate MGRM-Chronic-B-012 (HIV-1).
The target in assay [24] is HIV-1 Env of isolate MGRM-G-004 (HIV-1).

Some results are limits rather than exact numbers.

Chain of 5345_I01 (PGT-137) (antibody) (VH): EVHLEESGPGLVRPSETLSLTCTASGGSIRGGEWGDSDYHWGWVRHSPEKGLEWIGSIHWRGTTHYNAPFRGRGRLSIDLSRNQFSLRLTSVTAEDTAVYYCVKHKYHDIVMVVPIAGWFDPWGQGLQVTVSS
Chain of 5345_I01 (PGT-137) (antibody) (VL): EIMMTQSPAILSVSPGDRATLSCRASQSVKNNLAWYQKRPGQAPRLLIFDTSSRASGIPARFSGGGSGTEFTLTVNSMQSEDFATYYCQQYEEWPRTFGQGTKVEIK

As for 5114_A19 (PGT-128) (antibody), the IC50, pseudovirus neutralization in assay [1] is over 50 µg/mL; in [3] it was 0.995 µg/mL; in assay [5], 0.01 µg/mL; in assay [7], over 50 µg/mL; in assay [9], 0.319 µg/mL; in assay [10], over 50 µg/mL. Besides, the IC50, pseudovirus neutralization in assay [11] was 0.313 µg/mL; in assay [12], 0.004 µg/mL; in assay [18] it was 0.019 µg/mL; in [20], over 50 µg/mL; in assay [21] it was 8.21 µg/mL; in [22], over 50 µg/mL. Also, the IC50, pseudovirus neutralization in [24] was over 50 µg/mL. The IC50 is 0.02 µg/mL in assay [2]; 0.02 µg/mL in [4]; over 50 µg/mL in assay [6]; 0.007 µg/mL in assay [8]; over 50 µg/mL in assay [13]; over 50 µg/mL in assay [14]. Moreover, the IC50 was over 50 µg/mL in assay [15]; 0.019 µg/mL in [16]; 0.007 µg/mL in assay [17]; 0.004 µg/mL in assay [19]; 0.026 µg/mL in [23].
Take 5136_H01 (PGT-131) (antibody): the IC50, pseudovirus neutralization in [1], in [3], in [5], in assay [7], in [9] and in assay [10] was over 50 µg/mL throughout. Moreover, the IC50, pseudovirus neutralization in [11] was 2.9 µg/mL; in assay [12], 4.31 µg/mL; in assay [18] it was 0.404 µg/mL; in [20] it was over 50 µg/mL; in assay [21] it was over 50 µg/mL; in assay [22], over 50 µg/mL. Also, the IC50, pseudovirus neutralization in assay [24] is over 50 µg/mL. The 50% inhibitory concentration (IC50) in assay [2] was 6.47 µg/mL; in [4], over 50 µg/mL; in assay [6], over 50 µg/mL; in assay [8], 0.053 µg/mL; in assay [13] it was over 50 µg/mL; in [14] it was over 50 µg/mL. Besides, the IC50 is over 50 µg/mL in assay [15]; 19.6 µg/mL in assay [16]; 0.454 µg/mL in assay [17]; 0.016 µg/mL in assay [19]; 15.7 µg/mL in assay [23].
On to 5345_I01 (PGT-137) (antibody), for which the IC50, pseudovirus neutralization in assay [1] was over 50 µg/mL; in [3], over 50 µg/mL; in assay [5], 0.126 µg/mL; in [7], over 50 µg/mL; in [9], 34.9 µg/mL; in assay [10], over 50 µg/mL. The IC50, pseudovirus neutralization in assay [11] is 0.228 µg/mL; in assay [12], over 50 µg/mL; in assay [18], 41.7 µg/mL; in assay [20], over 50 µg/mL; in assay [21], over 50 µg/mL; in assay [22] it was over 50 µg/mL. In assay [24], the IC50, pseudovirus neutralization was over 50 µg/mL. The IC50 in assay [2] was over 50 µg/mL; in assay [4] it was over 50 µg/mL; in assay [6], over 50 µg/mL; in [8] it was 32.9 µg/mL; in [13], over 50 µg/mL; in assay [14], over 50 µg/mL. Moreover, the IC50 in [15], in assay [16], in assay [17], in assay [19] and in assay [23] was over 50 µg/mL throughout.
